Experimental data taken from the supplement of paper PMC10567573.

B1: OAS1 (parent)
chain: LTVYAWERGSMKTHFNTAQGFRTV
B2: ATE1 (parent)
chain: YGSFHQQYWLDGKIIAVGVIDILP

Variants of: B1
Experiment: protein stability index of a GFP-peptide fusion (GPS, HEK-293T) (PSI 1-6); higher = more stable
Details: c terminus: a fixed tail appended
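Further: lentivirally expressed fusions sorted by FACS into six bins by GFP to DsRed ratio, PSI derived from sequencing read proportions per bin multiplied by bin number.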

Protein stability index: each site, then its substitutions
M11: D 2.21, E 2.27, F 2.49, G 3.37, H 2.31, I 1.97, K 2.38, L 1.51, N 2.06, P 1.85, Q 2.14, R 2.16, S 2.19, T 2.09, V 2.09, Y 3.28
K12: A 3.08, C 3.27, D 2.29, E 2.22, F 1.8, G 1.54, H 2.87, I 2.98, L 2.72, M 3.75, N 2.66, P 5.14, Q 2.43, R 1.51, S 4.72, T 2.98, V 2.45, W 2.8, Y 2.49
T13: A 2.88, C 1.13, D 2.74, E 2.06, F 3.1, G 2.33, H 1.83, I 2.75, K 1.51, L 2.99, M 3.37, N 2.25, P 2.06, Q 2.06, R 1.64, S 2.01, V 2.68, W 3.26, Y 3.56
H14: D 2.33, E 2.42, F 2.8, G 1.69, I 2.29, K 2.35, L 2.88, M 3.15, N 1.74, P 2.56, Q 1.75, R 3.04, S 2.44, T 2.86, V 3.57, W 2.76, Y 2.75
F15: A 2.35, C 1.96, D 2.47, E 2.27, G 1.61, H 2.39, I 2.88, K 2.01, L 2.21, M 2.26, N 1.55, P 1.52, Q 1.53, R 2.93, S 2.49, T 1.9, V 2.08, W 2.62, Y 2.28
N16: A 3.67, C 2.63, D 1.66, E 2.21, F 3.37, G 3.06, H 2.69, K 3.06, L 2.23, M 3.47, Q 2.83, R 1.53, S 3.5, T 2.45, V 3.22, W 3.85, Y 1.95
T17: A 1.69, C 1.78, D 2.33, E 1.61, F 2.25, G 2.67, H 2.95, I 3.17, K 2.48, L 2.17, M 1.74, N 1.72, P 2.2, Q 4.87, R 2.38, S 3.12, W 2.1, Y 2.64
A18: C 1.88, D 4.02, E 1.54, F 2.56, G 2.64, H 3.09, I 4.47, K 2.67, L 4.32, M 2.79, N 2.63, Q 2.79, R 2.84, S 1.2, T 2.39, V 3.42, W 2.73, Y 4.24
Q19: A 2.23, C 3.17, D 4.39, E 2.52, F 3.35, G 2.64, H 2.65, I 3.54, K 2.43, L 3.4, M 3.27, N 2.92, P 3.02, R 2.22, S 2.63, T 2.88, V 3.84, W 1.62, Y 3.25
G20: A 2.49, C 2.06, D 2.18, E 3.23, F 2.39, H 2.56, I 3, K 1.61, L 3.19, N 2.19, P 2.25, Q 2.14, R 3.81, S 3.02, T 2.89, V 2.89, W 1.9, Y 3.45
F21: A 1.9, C 2.35, D 2.09, E 2.1, G 1.4, H 1.74, I 2.09, K 2.27, L 2.67, M 1.9, N 2.87, P 2.33, Q 1.65, R 1.82, S 2.42, T 1.96, V 1.82, W 2.21, Y 2.9
R22: A 3.1, D 2.38, E 2.82, F 1.87, G 1.45, H 3.33, I 1.73, K 1.71, L 3.28, M 2.53, N 2.38, P 3.8, T 2.44, V 2.33, W 1.93, Y 3.17
T23: A 1.8, D 3.86, F 2.29, G 2.76, H 3.17, I 2.69, K 2.39, L 2.25, M 3.15, N 3.21, P 2.61, Q 1.9, R 1.4, S 2.78, Y 1.32
V24: A 2.04, C 2.83, D 1.63, E 2.51, F 2.35, G 1.73, H 1.61, I 3.42, K 1.71, L 1.68, M 1.96, N 2.84, P 2.64, Q 2.06, R 1.69, S 3.01, T 1.8, Y 2.51

Variants of: B2
Experiment: as above
Details: c terminus: a fixed tail appended

Protein stability index: each site, then its substitutions
Y1: C 3.63, E 1.92, F 3.22, H 2.79, K 3.54, L 1.73, M 1.87, N 1.77, S 4.07
G2: C 2.8, D 2.58, E 2.72, H 2.47, I 3.05, K 2.49, L 1.66, M 2.57, N 4.75, P 3.53, Q 2.66, R 3.47, S 1.91, T 4.66, Y 3.14
S3: D 4.93, E 1.34, H 2.96, I 3.48, K 2.55, P 2.19, R 2.02, T 2.22, V 3.33, W 2.82, Y 2.74
F4: D 2.95, E 3.75, H 2.83, I 2.92, M 2.76, N 3.28, P 1.93, Q 2.72, S 3.69, V 1.4, W 2.2, Y 4.54
H5: A 2.77, D 4.47, F 2.61, I 1.49, M 1.77, P 2.32, Q 2.37, R 2.13, Y 3.26
Q6: A 3.19, D 2.55, F 2.94, G 2.41, H 2.7, I 3.08, K 3.09, N 3.97, R 3.54, S 2.86, T 3.63, W 1.19, Y 2.43
Q7: A 4.84, C 3.33, D 2.72, F 2.02, G 3.84, H 2.4, I 2.67, L 2.01, M 1.76, P 2.94, R 2.99, S 4.74, T 3.51, W 4.02
Y8: D 2.78, F 3.62, H 2.57
